Source: paper PMC8391104, “Molecular mechanism of Mad1 kinetochore targeting by phosphorylated Bub1” (EMBO Reports, 2021)

Columns and labels:
kinetochore = conditions: cited from earlier work; for kinetochore targeting of F629A / R630A mutants, in words: ref Ji et al, 2017b
From the text: Formation of the Bub1‐Mad1 complex at kinetochores is dependent on phosphorylation of Bub1, a targeting mechanism conserved from yeast to humans (Heinrich et al, [2014]; London & Biggins, [2014a]; Silió et al, [2015]). In S. cerevisiae, phosphorylation of Bub1 at Thr453 and Thr455 by Mps1 promotes an interaction with Mad1^CTD, with pThr455 alone being sufficient for this interaction (London & Biggins, [2014a]; Ji et al, [2017b]). […] Phe629 is a buried hydrophobic residue which contacts Phe629 of the opposite subunit and therefore contributes to the hydrophobic dimerization interface of Mad1^CTD. Phe629 also contributes to the hydrophobic interface of the Bub1^CD1‐Mad1^CTD complex by stacking with Bub1 Phe475 (Fig 3B). […] However, we suspect this could be linked to disruption of the Mad1 conformation sinc ...

[1] = Aggregation of Mad1^CTD mutants; type: physicochemical; conditions: purified Mad1^CTD mutant
From the text: The coding region of Mad1^597–719 was cloned by USER® (NEB) into a modified pRSFDuet‐1 vector (71341‐3, Sigma‐Aldrich) with an N‐terminal double Strep His6‐tag, followed by a tobacco etch virus (TEV) protease cleavage site (Demple & Linn, [1982]; Bitinaite et al, [1992]). Mad1 mutants were generated using the QuikChange™ Lightning Site‐Directed Mutagenesis Kit (Agilent), developed by Stratagene Inc. (La Jolla, CA) (Nøhr & Kristiansen, [2003]). Mad1 constructs were transformed into Rosetta™ 2 (DE3) Singles™ Competent Cells (71400, Novagen) for expression. Expression was induced with 0.5 mM IPTG and grown overnight at 18°C. Cells were lysed in 25 mM HEPES pH 8.1, 250 mM NaCl, 2 mM DTT, 5% glycerol, 2 mM EDTA supplemented with lysozyme, and Complete™ EDTA‐free protease inhibitors (Roche). Proteins were purified over a Strep‐Tactin Superflow Plus column (QIAGEN) and cleaved with TEV protease overnight at 4°C. […]
Size exclusion chromatography coupled with multi‐angle static light scattering (SEC‐MALS) was performed using an Agilent 1200 series LC system with an online Dawn Helios ii system (Wyatt) equipped with a QELS+ module (Wyatt) and an Optilab rEX differential refractive index detector (Wyatt). […] The molecular masses were analysed with ASTRA 7.3.0.11 (Wyatt). […]

| Molecule | Mad1 kinetochore recruitment by Bub1 S459A, in words (kinetochore; ref Zhang et al, 2017) | aggregation, in words [1] | kinetochore targeting of F629A / R630A mutants, in words (kinetochore) |
| --- | --- | --- | --- |
| S459A: Bub1 S459A mutation (protein, UniProt O43683 1-1085, looked up, variant S459A) Mitotic checkpoint …: MDTPENVLQMLEAHMQSYKGNDPLGEWERYIQWVEENFPENKEYLITLLEHLMKEFLDKKKYHNDPRFISYCLKFAEYNSDLHQFFEFLYNHGIGTLSSPLYIAWAGHLEAQGELQHASAVLQRGIQNQAEPREFLQQQYRLFQTRLTETHLPAQARTSEPLHNVQVLNQMITSKSNPGNNMACISKNQGSELSGVISSACDKESNMERRVITISKSEYSVHSSLASKVDVEQVVMYCKEKLIRGESEFSFEELRAQKYNQRRKHEQWVNEDRHYMKRKEANAFEEQLLKQKMDELHKKLHQVVETSHEDLPASQERSEVNPARMGPSVGSQQELRAPCLPVTYQQTPVNMEKNPREAPPVVPPLANAISAALVSPATSQSIAPPVPLKAQTVTDSMFAVASKDAGCVNKSTHEFKPQSGAEIKEGCETHKVANTSSFHTTPNTSLGMVQATPSKVQPAPTVHTKEALGFIMNMFQAPTLPDISDDKDEWQSLDQNEDAFEAQFQKNVRSSGAWGVNKIISSLSSAFHVFEDGNKENYGLPQPKNKPTGARTFGERSVSRLPSKPKEEVPHAEEFLDDSTVWGIRCNKTLAPSPKSPGDFTSAAQLASTPFHKLPVESVHILEDKENVVAKQCTQATLDSCEENMVVPSRDGKFSPIQEKSPKQALSSHMYSASLLRLSQPAAGGVLTCEAELGVEACRLTDTDAAIAEDPPDAIAGLQAEWMQMSSLGTVDAPNFIVGNPWDDKLIFKLLSGLSKPVSSYPNTFEWQCKLPAIKPKTEFQLGSKLVYVHHLLGEGAFAQVYEATQGDLNDAKNKQKFVLKVQKPANPWEFYIGTQLMERLKPSMQHMFMKFYSAHLFQNGSVLVGELYSYGTLLNAINLYKNTPEKVMPQGLVISFAMRMLYMIEQVHDCEIIHGDIKPDNFILGNGFLEQDDEDDLSAGLALIDLGQSIDMKLFPKGTIFTAKCETSGFQCVEMLSNKPWNYQIDYFGVAATVYCMLFGTYMKVKNEGGECKPEGLFRRLPHLDMWNEFFHVMLNIPDCHHLPSLDLLRQKLKKVFQQHYTNKIRALRNRLIVLLLECKRSRK | inactivates Bub1‐mediated Mad1 kinetochore recruitment | – | – |
| F629A: Mad1 F629A mutant (protein, UniProt Q9Y6D9 1-718, looked up, variant F629A) Mitotic spindle assembly …: MEDLGENTMVLSTLRSLNNFISQRVEGGSGLDISTSAPGSLQMQYQQSMQLEERAEQIRSKSHLIQVEREKMQMELSHKRARVELERAASTSARNYEREVDRNQELLTRIRQLQEREAGAEEKMQEQLERNRQCQQNLDAASKRLREKEDSLAQAGETINALKGRISELQWSVMDQEMRVKRLESEKQELQEQLDLQHKKCQEANQKIQELQASQEARADHEQQIKDLEQKLSLQEQDAAIVKNMKSELVRLPRLERELKQLREESAHLREMRETNGLLQEELEGLQRKLGRQEKMQETLVGLELENERLLAKLQSWERLDQTMGLSIRTPEDLSRFVVELQQRELALKDKNSAVTSSARGLEKARQQLQEELRQVSGQLLEERKKRETHEALARRLQKRVLLLTKERDGMRAILGSYDSELTPAEYSPQLTRRMREAEDMVQKVHSHSAEMEAQLSQALEELGGQKQRADMLEMELKMLKSQSSSAEQSFLFSREEADTLRLKVEELEGERSRLEEEKRMLEAQLERRALQGDYDQSRTKVLHMSLNPTSVARQRLREDHSQLQAECERLRGLLRAMERGGTVPADLEAAAASLPSSKEVAELKKQVESAELKNQRLKEVFQTKIQEARKACYTLTGYQIDITTENQYRLTSLYAEHPGDCLIFKATSPSGSKMQLLETEFSHTVGELIEVHLRRQDSIPAFLSSLTLELFSRQTVA | – | had a propensity to aggregate | defective in kinetochore targeting |
| R630A: Mad1 R630A mutant (protein, UniProt Q9Y6D9 1-718, looked up, variant R630A) Mitotic spindle assembly …: MEDLGENTMVLSTLRSLNNFISQRVEGGSGLDISTSAPGSLQMQYQQSMQLEERAEQIRSKSHLIQVEREKMQMELSHKRARVELERAASTSARNYEREVDRNQELLTRIRQLQEREAGAEEKMQEQLERNRQCQQNLDAASKRLREKEDSLAQAGETINALKGRISELQWSVMDQEMRVKRLESEKQELQEQLDLQHKKCQEANQKIQELQASQEARADHEQQIKDLEQKLSLQEQDAAIVKNMKSELVRLPRLERELKQLREESAHLREMRETNGLLQEELEGLQRKLGRQEKMQETLVGLELENERLLAKLQSWERLDQTMGLSIRTPEDLSRFVVELQQRELALKDKNSAVTSSARGLEKARQQLQEELRQVSGQLLEERKKRETHEALARRLQKRVLLLTKERDGMRAILGSYDSELTPAEYSPQLTRRMREAEDMVQKVHSHSAEMEAQLSQALEELGGQKQRADMLEMELKMLKSQSSSAEQSFLFSREEADTLRLKVEELEGERSRLEEEKRMLEAQLERRALQGDYDQSRTKVLHMSLNPTSVARQRLREDHSQLQAECERLRGLLRAMERGGTVPADLEAAAASLPSSKEVAELKKQVESAELKNQRLKEVFQTKIQEFAKACYTLTGYQIDITTENQYRLTSLYAEHPGDCLIFKATSPSGSKMQLLETEFSHTVGELIEVHLRRQDSIPAFLSSLTLELFSRQTVA | – | – | defective in kinetochore targeting |
